Laboratory results from the supplement of paper PMC10724198.
± gives the standard deviation of the averaged measurements.

Legend:
Saccharomyces cerevisiae [1] = experiment: protein stability index of tFT-peptide fusion (C-terminal peptide) (PSI (0-1 scale)); higher = more stable (slower turnover)
Description: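 MPS profiling in S. cerevisiae of the tFT-X12 degron library: putative degron peptides plus stable controls, 12 aa, fused to the C-terminus of a sfGFP-mCherry timer. Cells are FACS-sorted into 8 mCherry/sfGFP bins and deep-sequenced. PSI runs from 0 (unstable) to 1 (stable). Backgrounds are wild type, das1Δ and doa10Δ at 30 °C, and wild type, das1Δ, cdc34-1 and cdc53-1 at 37 °C; 2-3 technical replicates each.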

Saccharomyces cerevisiae [2] = experiment: as above; conditions: genetic background: wild type; temperature: 30 C
[3] = genetic background: cdc34-1, temperature: 37 C
[4] = genetic background: cdc53-1, temperature: 37 C
[5] = genetic background: das1 deletion, temperature: 30 C
[6] = genetic background: das1 deletion, temperature: 37 C
[7] = genetic background: doa10 deletion, temperature: 30 C
[8] = genetic background: wild type, temperature: 30 C
[9] = genetic background: wild type, temperature: 37 C
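Further: PSI is a weighted mean of sequencing reads over stability bins, variants kept only with over 10 reads, mCherry proximal and sfGFP distal, peptide attached via GGGS linker.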

Sequence: PYVHPFRCYWVL
- protein stability index (Saccharomyces cerevisiae [1]; [3]): 0.589 ± 0.032
- protein stability index (Saccharomyces cerevisiae [1]; [4]): 0.717 ± 0.027
- protein stability index (Saccharomyces cerevisiae [1]; [5]): 0.621 ± 0.02
- protein stability index (Saccharomyces cerevisiae [1]; [6]): 0.7396 ± 0.0015
- protein stability index (Saccharomyces cerevisiae [1]; [7]): 0.128 ± 0.01
- protein stability index (Saccharomyces cerevisiae [1]; [8]): 0.138 ± 0.0077
- protein stability index (Saccharomyces cerevisiae [1]; [9]): 0.181 ± 0.016
- protein stability index (Saccharomyces cerevisiae [2]): 0.193 ± 0.029

Sequence: QCSPGLPHAQGL
- protein stability index (Saccharomyces cerevisiae [1]; [3]): 0.692 ± 0.025
- protein stability index (Saccharomyces cerevisiae [1]; [4]): 0.71 ± 0.015
- protein stability index (Saccharomyces cerevisiae [1]; [5]): 0.634 ± 0.024
- protein stability index (Saccharomyces cerevisiae [1]; [6]): 0.733 ± 0.014
- protein stability index (Saccharomyces cerevisiae [1]; [7]): 0.657 ± 0.028
- protein stability index (Saccharomyces cerevisiae [1]; [8]): 0.666 ± 0.039
- protein stability index (Saccharomyces cerevisiae [1]; [9]): 0.708 ± 0.013
- protein stability index (Saccharomyces cerevisiae [2]): 0.565 ± 0.15

Sequence: QGPHISQYRTHR
- protein stability index (Saccharomyces cerevisiae [1]; [3]): 0.67 ± 0.022
- protein stability index (Saccharomyces cerevisiae [1]; [4]): 0.7226 ± 0.0053
- protein stability index (Saccharomyces cerevisiae [1]; [5]): 0.6413 ± 0.0052
- protein stability index (Saccharomyces cerevisiae [1]; [6]): 0.745 ± 0.025
- protein stability index (Saccharomyces cerevisiae [1]; [7]): 0.676 ± 0.0068
- protein stability index (Saccharomyces cerevisiae [1]; [8]): 0.673 ± 0.014
- protein stability index (Saccharomyces cerevisiae [1]; [9]): 0.728 ± 0.0094
- protein stability index (Saccharomyces cerevisiae [2]): 0.706 ± 0.0037

Sequence: QHRAIKIEIKIN
- protein stability index (Saccharomyces cerevisiae [1]; [3]): 0.439 ± 0.024
- protein stability index (Saccharomyces cerevisiae [1]; [4]): 0.666 ± 0.018
- protein stability index (Saccharomyces cerevisiae [1]; [5]): 0.571 ± 0.048
- protein stability index (Saccharomyces cerevisiae [1]; [6]): 0.672 ± 0.02
- protein stability index (Saccharomyces cerevisiae [1]; [7]): 0.0613 ± 0.035
- protein stability index (Saccharomyces cerevisiae [1]; [8]): 0.0582 ± 0.013
- protein stability index (Saccharomyces cerevisiae [1]; [9]): 0.0578 ± 0.011
- protein stability index (Saccharomyces cerevisiae [2]): 0.091 ± 0.0089

Sequence: QVLISLYVHGYF
- protein stability index (Saccharomyces cerevisiae [1]; [3]): 0.551 ± 0.053
- protein stability index (Saccharomyces cerevisiae [1]; [4]): 0.5374 ± 0.0037
- protein stability index (Saccharomyces cerevisiae [1]; [5]): 0.453 ± 0.047
- protein stability index (Saccharomyces cerevisiae [1]; [6]): 0.51 ± 0.017
- protein stability index (Saccharomyces cerevisiae [1]; [7]): 0.388 ± 0.011
- protein stability index (Saccharomyces cerevisiae [1]; [8]): 0.426 ± 0.02
- protein stability index (Saccharomyces cerevisiae [1]; [9]): 0.519 ± 0.019
- protein stability index (Saccharomyces cerevisiae [2]): 0.501 ± 0.008

Sequence: RCCWWNAQAVWR
- protein stability index (Saccharomyces cerevisiae [1]; [3]): 0.725 ± 0.043
- protein stability index (Saccharomyces cerevisiae [1]; [4]): 0.7494 ± 0.0045
- protein stability index (Saccharomyces cerevisiae [1]; [5]): 0.638 ± 0.029
- protein stability index (Saccharomyces cerevisiae [1]; [6]): 0.752 ± 0.0039
- protein stability index (Saccharomyces cerevisiae [1]; [7]): 0.655 ± 0.016
- protein stability index (Saccharomyces cerevisiae [1]; [8]): 0.631 ± 0.032
- protein stability index (Saccharomyces cerevisiae [1]; [9]): 0.73 ± 0.023
- protein stability index (Saccharomyces cerevisiae [2]): 0.578 ± 0.15

Sequence: RCLHTSVFLIFP
- protein stability index (Saccharomyces cerevisiae [1]; [3]): 0.484 ± 0.012
- protein stability index (Saccharomyces cerevisiae [1]; [4]): 0.488 ± 0.038
- protein stability index (Saccharomyces cerevisiae [1]; [5]): 0.476 ± 0.038
- protein stability index (Saccharomyces cerevisiae [1]; [6]): 0.604 ± 0.021
- protein stability index (Saccharomyces cerevisiae [1]; [7]): 0.652 ± 0.026
- protein stability index (Saccharomyces cerevisiae [1]; [8]): 0.488 ± 0.03
- protein stability index (Saccharomyces cerevisiae [1]; [9]): 0.54 ± 0.008
- protein stability index (Saccharomyces cerevisiae [2]): 0.459 ± 0.03

Sequence: RDASLLFHFFVC
- protein stability index (Saccharomyces cerevisiae [1]; [3]): 0.507 ± 0.059
- protein stability index (Saccharomyces cerevisiae [1]; [4]): 0.727 ± 0.014
- protein stability index (Saccharomyces cerevisiae [1]; [5]): 0.614 ± 0.012
- protein stability index (Saccharomyces cerevisiae [1]; [6]): 0.726 ± 0.011
- protein stability index (Saccharomyces cerevisiae [1]; [7]): 0.0833 ± 0.018
- protein stability index (Saccharomyces cerevisiae [1]; [8]): 0.0965 ± 0.0056
- protein stability index (Saccharomyces cerevisiae [1]; [9]): 0.143 ± 0.015
- protein stability index (Saccharomyces cerevisiae [2]): 0.199 ± 0.0058

Sequence: REGDLLKFKMRP
- protein stability index (Saccharomyces cerevisiae [1]; [3]): 0.6854 ± 0.0054
- protein stability index (Saccharomyces cerevisiae [1]; [4]): 0.727 ± 0.008
- protein stability index (Saccharomyces cerevisiae [1]; [5]): 0.637 ± 0.024
- protein stability index (Saccharomyces cerevisiae [1]; [6]): 0.716 ± 0.018
- protein stability index (Saccharomyces cerevisiae [1]; [7]): 0.637 ± 0.037
- protein stability index (Saccharomyces cerevisiae [1]; [8]): 0.639 ± 0.015
- protein stability index (Saccharomyces cerevisiae [1]; [9]): 0.703 ± 0.027
- protein stability index (Saccharomyces cerevisiae [2]): 0.725 ± 0.067

Sequence: RFFVRRVRVAVL
- protein stability index (Saccharomyces cerevisiae [1]; [3]): 0.786 ± 0.036
- protein stability index (Saccharomyces cerevisiae [1]; [4]): 0.817 ± 0.019
- protein stability index (Saccharomyces cerevisiae [1]; [5]): 0.553 ± 0.055
- protein stability index (Saccharomyces cerevisiae [1]; [6]): 0.687 ± 0.0081
- protein stability index (Saccharomyces cerevisiae [1]; [7]): 0.386 ± 0.025
- protein stability index (Saccharomyces cerevisiae [1]; [8]): 0.382 ± 0.031
- protein stability index (Saccharomyces cerevisiae [1]; [9]): 0.578 ± 0.048
- protein stability index (Saccharomyces cerevisiae [2]): 0.406 ± 0.0052

Sequence: RFICMMYLVYLC
- protein stability index (Saccharomyces cerevisiae [1]; [3]): 0.142 ± 0.022
- protein stability index (Saccharomyces cerevisiae [1]; [4]): 0.188 ± 0.023
- protein stability index (Saccharomyces cerevisiae [1]; [5]): 0.192 ± 0.03
- protein stability index (Saccharomyces cerevisiae [1]; [6]): 0.3 ± 0.016
- protein stability index (Saccharomyces cerevisiae [1]; [7]): 0.0601 ± 0.035
- protein stability index (Saccharomyces cerevisiae [1]; [8]): 0.0619 ± 0.018
- protein stability index (Saccharomyces cerevisiae [1]; [9]): 0.073 ± 0.019
- protein stability index (Saccharomyces cerevisiae [2]): 0.1405 ± 0.0006

Sequence: RFLPYLPTPLSP
- protein stability index (Saccharomyces cerevisiae [1]; [3]): 0.664 ± 0.026
- protein stability index (Saccharomyces cerevisiae [1]; [4]): 0.7203 ± 0.0043
- protein stability index (Saccharomyces cerevisiae [1]; [5]): 0.506 ± 0.016
- protein stability index (Saccharomyces cerevisiae [1]; [6]): 0.5974 ± 0.0048
- protein stability index (Saccharomyces cerevisiae [1]; [7]): 0.502 ± 0.016
- protein stability index (Saccharomyces cerevisiae [1]; [8]): 0.513 ± 0.014
- protein stability index (Saccharomyces cerevisiae [1]; [9]): 0.568 ± 0.011
- protein stability index (Saccharomyces cerevisiae [2]): 0.52 ± 0.031

Sequence: RGAVLLPSLWVV
- protein stability index (Saccharomyces cerevisiae [1]; [3]): 0.659 ± 0.025
- protein stability index (Saccharomyces cerevisiae [1]; [4]): 0.7044 ± 0.0028
- protein stability index (Saccharomyces cerevisiae [1]; [5]): 0.577 ± 0.027
- protein stability index (Saccharomyces cerevisiae [1]; [6]): 0.7355 ± 0.0068
- protein stability index (Saccharomyces cerevisiae [1]; [7]): 0.356 ± 0.033
- protein stability index (Saccharomyces cerevisiae [1]; [8]): 0.381 ± 0.022
- protein stability index (Saccharomyces cerevisiae [1]; [9]): 0.551 ± 0.0061
- protein stability index (Saccharomyces cerevisiae [2]): 0.483 ± 0.061

Sequence: RGCLVHSGFFIV
- protein stability index (Saccharomyces cerevisiae [1]; [3]): 0.65 ± 0.034
- protein stability index (Saccharomyces cerevisiae [1]; [4]): 0.683 ± 0.011
- protein stability index (Saccharomyces cerevisiae [1]; [5]): 0.62 ± 0.018
- protein stability index (Saccharomyces cerevisiae [1]; [6]): 0.6898 ± 0.0051
- protein stability index (Saccharomyces cerevisiae [1]; [7]): 0.212 ± 0.0034
- protein stability index (Saccharomyces cerevisiae [1]; [8]): 0.239 ± 0.027
- protein stability index (Saccharomyces cerevisiae [1]; [9]): 0.4987 ± 0.0029
- protein stability index (Saccharomyces cerevisiae [2]): 0.401 ± 0.067

Sequence: RGGVLYVSIRCK
- protein stability index (Saccharomyces cerevisiae [1]; [3]): 0.282 ± 0.019
- protein stability index (Saccharomyces cerevisiae [1]; [4]): 0.335 ± 0.0034
- protein stability index (Saccharomyces cerevisiae [1]; [5]): 0.228 ± 0.032
- protein stability index (Saccharomyces cerevisiae [1]; [6]): 0.397 ± 0.0054
- protein stability index (Saccharomyces cerevisiae [1]; [7]): 0.186 ± 0.015
- protein stability index (Saccharomyces cerevisiae [1]; [8]): 0.233 ± 0.037
- protein stability index (Saccharomyces cerevisiae [1]; [9]): 0.386 ± 0.023
- protein stability index (Saccharomyces cerevisiae [2]): 0.341 ± 0.053

Sequence: RIHRRLIKNKRV
- protein stability index (Saccharomyces cerevisiae [1]; [3]): 0.649 ± 0.021
- protein stability index (Saccharomyces cerevisiae [1]; [4]): 0.7 ± 0.02
- protein stability index (Saccharomyces cerevisiae [1]; [5]): 0.71 ± 0.036
- protein stability index (Saccharomyces cerevisiae [1]; [6]): 0.739 ± 0.041
- protein stability index (Saccharomyces cerevisiae [1]; [7]): 0.155 ± 0.028
- protein stability index (Saccharomyces cerevisiae [1]; [8]): 0.156 ± 0.038
- protein stability index (Saccharomyces cerevisiae [1]; [9]): 0.377 ± 0.023
- protein stability index (Saccharomyces cerevisiae [2]): 0.162 ± 0.086

Sequence: RIVSGVVLLVFV
- protein stability index (Saccharomyces cerevisiae [1]; [3]): 0.404 ± 0.0079
- protein stability index (Saccharomyces cerevisiae [1]; [4]): 0.469 ± 0.0074
- protein stability index (Saccharomyces cerevisiae [1]; [5]): 0.237 ± 0.019
- protein stability index (Saccharomyces cerevisiae [1]; [6]): 0.5234 ± 0.0034
- protein stability index (Saccharomyces cerevisiae [1]; [7]): 0.206 ± 0.015
- protein stability index (Saccharomyces cerevisiae [1]; [8]): 0.226 ± 0.042
- protein stability index (Saccharomyces cerevisiae [1]; [9]): 0.527 ± 0.034
- protein stability index (Saccharomyces cerevisiae [2]): 0.336 ± 0.035

Sequence: RKGQNKKRNKIY
- protein stability index (Saccharomyces cerevisiae [1]; [3]): 0.7504 ± 0.0028
- protein stability index (Saccharomyces cerevisiae [1]; [4]): 0.767 ± 0.019
- protein stability index (Saccharomyces cerevisiae [1]; [5]): 0.659 ± 0.008
- protein stability index (Saccharomyces cerevisiae [1]; [6]): 0.7331 ± 0.0033
- protein stability index (Saccharomyces cerevisiae [1]; [7]): 0.203 ± 0.028
- protein stability index (Saccharomyces cerevisiae [1]; [8]): 0.295 ± 0.035
- protein stability index (Saccharomyces cerevisiae [1]; [9]): 0.575 ± 0.044
- protein stability index (Saccharomyces cerevisiae [2]): 0.399 ± 0.02

Sequence: RKWLFFRSWRYV
- protein stability index (Saccharomyces cerevisiae [1]; [3]): 0.476 ± 0.047
- protein stability index (Saccharomyces cerevisiae [1]; [4]): 0.69 ± 0.012
- protein stability index (Saccharomyces cerevisiae [1]; [5]): 0.626 ± 0.028
- protein stability index (Saccharomyces cerevisiae [1]; [6]): 0.7486 ± 0.0024
- protein stability index (Saccharomyces cerevisiae [1]; [7]): 0.0555 ± 0.024
- protein stability index (Saccharomyces cerevisiae [1]; [8]): 0.0663 ± 0.011
- protein stability index (Saccharomyces cerevisiae [1]; [9]): 0.0912 ± 0.024
- protein stability index (Saccharomyces cerevisiae [2]): 0.134 ± 0.002

Sequence: RLFIIYLLNIQG
- protein stability index (Saccharomyces cerevisiae [1]; [3]): 0.37 ± 0.052
- protein stability index (Saccharomyces cerevisiae [1]; [4]): 0.5289 ± 0.0034
- protein stability index (Saccharomyces cerevisiae [1]; [5]): 0.311 ± 0.022
- protein stability index (Saccharomyces cerevisiae [1]; [6]): 0.544 ± 0.022
- protein stability index (Saccharomyces cerevisiae [1]; [7]): 0.263 ± 0.0062
- protein stability index (Saccharomyces cerevisiae [1]; [8]): 0.305 ± 0.047
- protein stability index (Saccharomyces cerevisiae [1]; [9]): 0.515 ± 0.022
- protein stability index (Saccharomyces cerevisiae [2]): 0.407 ± 0.019
